Data from patent US20140057284A1, “PHOTOLUMINESCENT MOLECULAR COMPLEX AND METHOD FOR DETERMINING OF THE CONCENTRATION OF SAID MOLECULAR COMPLEX” (priority 2011, published 2014).

Columns and labels:
Experiment in all cases: biochemical
Conditions in all cases: read-out: Percentages of residual activities of the kinase reaction
YES1 = YES1 (Homo sapiens, UniProt P07947)
Procedure: (§1) Selectivity testing (Table 2) was performed on the commercial basis at the Division of Signal Transduction Therapy, University of Dundee. ATP concentrations that were used in testing were close to the Km value of the kinase.

GSK3b = GSK3b (Homo sapiens, UniProt P49841)
Procedure: as §1

PKA = PKA (Homo sapiens, UniProt P17612)
Procedure: as §1

MSK1 = MSK1 (Homo sapiens, UniProt O75582)
Procedure: as §1

MST2 = MST2 (Homo sapiens, UniProt Q13188)
Sequence of MST2 (Q13188 whole entry, species assumed): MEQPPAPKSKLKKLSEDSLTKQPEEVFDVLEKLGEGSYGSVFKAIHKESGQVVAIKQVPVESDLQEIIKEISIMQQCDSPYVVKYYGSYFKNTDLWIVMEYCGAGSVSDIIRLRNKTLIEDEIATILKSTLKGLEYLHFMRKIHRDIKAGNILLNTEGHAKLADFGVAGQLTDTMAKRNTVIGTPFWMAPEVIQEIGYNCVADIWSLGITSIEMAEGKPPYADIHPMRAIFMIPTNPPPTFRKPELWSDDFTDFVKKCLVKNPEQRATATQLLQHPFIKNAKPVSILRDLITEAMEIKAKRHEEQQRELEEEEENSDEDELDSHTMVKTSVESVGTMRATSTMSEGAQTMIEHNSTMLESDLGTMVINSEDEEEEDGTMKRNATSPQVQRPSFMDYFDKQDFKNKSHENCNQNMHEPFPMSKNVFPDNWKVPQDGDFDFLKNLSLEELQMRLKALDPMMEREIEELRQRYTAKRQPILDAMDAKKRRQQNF
Procedure: as §1

Aurora B = Aurora B (Homo sapiens, UniProt Q96GD4)
Procedure: as §1

JNK1 = JNK1 (Homo sapiens, UniProt P45983)
Procedure: as §1

CLK2 = CLK2 (Homo sapiens, UniProt P49760)
Sequence of CLK2 (P49760 whole entry, species assumed): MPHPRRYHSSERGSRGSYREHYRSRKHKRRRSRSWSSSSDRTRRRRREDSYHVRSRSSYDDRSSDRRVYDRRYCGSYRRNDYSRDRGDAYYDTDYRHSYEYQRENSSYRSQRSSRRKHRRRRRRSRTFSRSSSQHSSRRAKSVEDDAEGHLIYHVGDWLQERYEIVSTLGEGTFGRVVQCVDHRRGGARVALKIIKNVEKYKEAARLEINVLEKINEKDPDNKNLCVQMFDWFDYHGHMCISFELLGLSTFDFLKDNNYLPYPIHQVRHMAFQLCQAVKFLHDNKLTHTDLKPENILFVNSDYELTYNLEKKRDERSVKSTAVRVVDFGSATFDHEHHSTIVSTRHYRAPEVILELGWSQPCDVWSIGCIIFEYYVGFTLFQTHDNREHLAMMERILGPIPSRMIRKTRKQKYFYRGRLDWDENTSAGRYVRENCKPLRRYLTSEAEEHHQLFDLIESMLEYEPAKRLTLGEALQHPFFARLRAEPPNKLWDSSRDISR
Procedure: as §1

TBK1 = TBK1 (Homo sapiens, UniProt Q9UHD2)
Procedure: as §1

TAK1 = TAK1 (Homo sapiens, UniProt O43318)
Procedure: as §1

SYK = SYK (Homo sapiens, UniProt P43405)
Procedure: as §1

Src = Src (Homo sapiens, UniProt P12931)
Procedure: as §1

DYRK3 = DYRK3 (Homo sapiens, UniProt O43781)
Procedure: as §1

MLK1 = MLK1 (Homo sapiens, UniProt P80192)
Procedure: as §1

EPH-B3 = EPH-B3 (Homo sapiens, UniProt P54753)
Procedure: as §1

ZAP70 = ZAP70 (Homo sapiens, UniProt P43403)
Procedure: as §1

CAMK1 = CAMK1 (Homo sapiens, UniProt Q14012)
Procedure: as §1

RIPK2 = RIPK2 (Homo sapiens, UniProt O43353)
Procedure: as §1

p38g MAPK = p38g MAPK (Homo sapiens, UniProt P53778)
Procedure: as §1

MARK3 = MARK3 (Homo sapiens, UniProt P27448)
Procedure: as §1

LKB1 = LKB1 (Homo sapiens, UniProt Q15831)
Sequence of LKB1 (Q15831 whole entry, species assumed): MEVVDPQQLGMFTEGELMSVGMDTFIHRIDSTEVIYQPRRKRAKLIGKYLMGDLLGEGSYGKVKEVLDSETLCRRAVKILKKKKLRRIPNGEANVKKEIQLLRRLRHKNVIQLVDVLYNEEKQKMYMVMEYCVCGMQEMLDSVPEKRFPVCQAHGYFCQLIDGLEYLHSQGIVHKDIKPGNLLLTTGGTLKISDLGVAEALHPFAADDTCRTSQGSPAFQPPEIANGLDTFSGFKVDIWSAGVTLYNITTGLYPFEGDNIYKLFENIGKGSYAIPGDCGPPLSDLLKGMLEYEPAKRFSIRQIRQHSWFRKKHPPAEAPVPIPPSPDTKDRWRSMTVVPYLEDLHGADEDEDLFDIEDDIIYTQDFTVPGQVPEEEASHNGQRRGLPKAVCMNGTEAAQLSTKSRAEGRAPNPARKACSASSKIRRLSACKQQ
Sequence of LKB1 (Q7RTN6 whole entry partner, species assumed): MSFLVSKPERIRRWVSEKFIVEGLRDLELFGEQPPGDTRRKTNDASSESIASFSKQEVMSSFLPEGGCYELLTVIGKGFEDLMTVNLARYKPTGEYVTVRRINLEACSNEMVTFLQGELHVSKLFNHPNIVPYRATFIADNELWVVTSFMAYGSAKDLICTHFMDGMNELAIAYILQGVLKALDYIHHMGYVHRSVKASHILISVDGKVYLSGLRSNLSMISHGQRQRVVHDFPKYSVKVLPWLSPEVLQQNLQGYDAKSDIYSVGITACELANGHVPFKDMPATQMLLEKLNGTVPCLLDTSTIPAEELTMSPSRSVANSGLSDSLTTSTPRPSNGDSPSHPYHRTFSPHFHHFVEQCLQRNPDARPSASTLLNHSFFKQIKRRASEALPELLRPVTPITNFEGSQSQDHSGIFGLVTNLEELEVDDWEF
Sequence of LKB1 (Q9Y376 whole entry partner, species assumed): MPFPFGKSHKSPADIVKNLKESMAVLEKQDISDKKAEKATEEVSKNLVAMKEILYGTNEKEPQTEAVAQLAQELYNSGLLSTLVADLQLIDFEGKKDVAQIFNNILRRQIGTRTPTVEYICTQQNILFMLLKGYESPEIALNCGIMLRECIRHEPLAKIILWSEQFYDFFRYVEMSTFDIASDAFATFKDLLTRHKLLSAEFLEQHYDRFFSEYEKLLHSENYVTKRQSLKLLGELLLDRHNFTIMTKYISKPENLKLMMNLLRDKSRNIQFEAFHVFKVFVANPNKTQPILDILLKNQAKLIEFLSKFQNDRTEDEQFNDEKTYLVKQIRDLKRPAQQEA
Procedure: as §1

JAK2 = JAK2 (Homo sapiens, UniProt O60674)
Procedure: as §1

SRPK1 = SRPK1 (Homo sapiens, UniProt Q96SB4)
Procedure: as §1

p38d MAPK = p38d MAPK (Homo sapiens, UniProt O15264)
Procedure: as §1

PKD1 = PKD1 (Homo sapiens, UniProt Q15139)
Sequence of PKD1 (Q15139 whole entry): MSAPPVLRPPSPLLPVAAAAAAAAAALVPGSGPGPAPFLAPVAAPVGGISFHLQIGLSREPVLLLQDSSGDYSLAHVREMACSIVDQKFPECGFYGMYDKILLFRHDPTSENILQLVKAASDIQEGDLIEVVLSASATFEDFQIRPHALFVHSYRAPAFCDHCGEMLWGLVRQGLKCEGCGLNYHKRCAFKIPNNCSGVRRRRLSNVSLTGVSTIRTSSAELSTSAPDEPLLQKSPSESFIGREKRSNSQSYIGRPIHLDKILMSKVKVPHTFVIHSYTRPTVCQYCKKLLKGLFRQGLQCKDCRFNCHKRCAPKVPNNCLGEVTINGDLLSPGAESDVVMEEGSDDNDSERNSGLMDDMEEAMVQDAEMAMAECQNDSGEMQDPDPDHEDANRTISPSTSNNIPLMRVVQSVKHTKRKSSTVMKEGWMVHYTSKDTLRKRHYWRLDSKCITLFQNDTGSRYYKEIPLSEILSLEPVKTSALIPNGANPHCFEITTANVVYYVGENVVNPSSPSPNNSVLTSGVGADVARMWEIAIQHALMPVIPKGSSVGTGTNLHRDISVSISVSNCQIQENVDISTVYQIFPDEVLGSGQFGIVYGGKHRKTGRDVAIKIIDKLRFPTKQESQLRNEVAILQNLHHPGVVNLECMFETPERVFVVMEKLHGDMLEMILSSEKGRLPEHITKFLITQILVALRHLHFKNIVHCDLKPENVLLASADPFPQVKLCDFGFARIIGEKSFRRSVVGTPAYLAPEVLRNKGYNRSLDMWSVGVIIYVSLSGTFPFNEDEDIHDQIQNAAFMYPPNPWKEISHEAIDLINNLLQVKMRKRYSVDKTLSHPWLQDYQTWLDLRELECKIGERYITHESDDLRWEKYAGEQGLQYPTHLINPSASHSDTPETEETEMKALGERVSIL
Procedure: as §1

JNK2 = JNK2 (Homo sapiens, UniProt P45984)
Procedure: as §1

PLK1 = PLK1 (Homo sapiens, UniProt P53350)
Procedure: as §1

GCK = GCK (Homo sapiens, UniProt Q12851)
Procedure: as §1

EF2K = EF2K (Homo sapiens, UniProt O00418)
Procedure: as §1

S6K1 = S6K1 (Homo sapiens, UniProt P23443)
Procedure: as §1

TTK = TTK (Homo sapiens, UniProt P33981)
Procedure: as §1

EPH-B1 = EPH-B1 (Homo sapiens, UniProt P54762)
Sequence of EPH-B1 (P54762 18-984, species assumed): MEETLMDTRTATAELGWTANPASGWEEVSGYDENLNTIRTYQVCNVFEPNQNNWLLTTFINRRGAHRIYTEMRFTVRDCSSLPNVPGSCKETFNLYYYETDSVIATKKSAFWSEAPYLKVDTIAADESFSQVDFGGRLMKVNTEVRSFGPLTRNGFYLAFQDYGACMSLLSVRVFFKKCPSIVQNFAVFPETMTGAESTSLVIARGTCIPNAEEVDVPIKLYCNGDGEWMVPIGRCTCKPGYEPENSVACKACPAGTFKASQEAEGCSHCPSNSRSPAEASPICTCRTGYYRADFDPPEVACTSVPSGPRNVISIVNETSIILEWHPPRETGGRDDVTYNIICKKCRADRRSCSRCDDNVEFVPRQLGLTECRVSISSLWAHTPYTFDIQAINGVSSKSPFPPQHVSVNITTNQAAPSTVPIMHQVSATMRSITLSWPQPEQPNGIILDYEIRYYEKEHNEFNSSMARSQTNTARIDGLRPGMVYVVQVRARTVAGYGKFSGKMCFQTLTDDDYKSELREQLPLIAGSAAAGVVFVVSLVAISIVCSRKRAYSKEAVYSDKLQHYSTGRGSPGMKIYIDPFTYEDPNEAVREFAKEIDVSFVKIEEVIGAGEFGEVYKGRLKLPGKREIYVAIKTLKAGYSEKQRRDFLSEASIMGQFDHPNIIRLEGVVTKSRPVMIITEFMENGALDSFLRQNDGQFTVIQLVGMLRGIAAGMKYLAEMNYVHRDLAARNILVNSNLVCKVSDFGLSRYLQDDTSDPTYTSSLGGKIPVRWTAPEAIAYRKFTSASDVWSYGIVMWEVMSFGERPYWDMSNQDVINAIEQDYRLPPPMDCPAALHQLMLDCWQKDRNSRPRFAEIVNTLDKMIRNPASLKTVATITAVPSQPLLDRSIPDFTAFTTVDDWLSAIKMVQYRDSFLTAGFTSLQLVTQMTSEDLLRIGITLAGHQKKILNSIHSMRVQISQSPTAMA
Procedure: as §1

RSK2 = RSK2 (Homo sapiens, UniProt P51812)
Procedure: as §1

PIM1 = PIM1 (Homo sapiens, UniProt P11309)
Procedure: as §1

p38a MAPK = p38a MAPK (Homo sapiens, UniProt Q16539)
Procedure: as §1

ERK2 = ERK2 (Homo sapiens, UniProt P28482)
Procedure: as §1

PIM2 = PIM2 (Homo sapiens, UniProt Q9P1W9)
Procedure: as §1

NEK6 = NEK6 (Homo sapiens, UniProt Q9HC98)
Procedure: as §1

IRAK4 = IRAK4 (Homo sapiens, UniProt Q9NWZ3)
Procedure: as §1

RSK1 = RSK1 (Homo sapiens, UniProt Q15418)
Sequence of RSK1 (Q15418 whole entry, species assumed): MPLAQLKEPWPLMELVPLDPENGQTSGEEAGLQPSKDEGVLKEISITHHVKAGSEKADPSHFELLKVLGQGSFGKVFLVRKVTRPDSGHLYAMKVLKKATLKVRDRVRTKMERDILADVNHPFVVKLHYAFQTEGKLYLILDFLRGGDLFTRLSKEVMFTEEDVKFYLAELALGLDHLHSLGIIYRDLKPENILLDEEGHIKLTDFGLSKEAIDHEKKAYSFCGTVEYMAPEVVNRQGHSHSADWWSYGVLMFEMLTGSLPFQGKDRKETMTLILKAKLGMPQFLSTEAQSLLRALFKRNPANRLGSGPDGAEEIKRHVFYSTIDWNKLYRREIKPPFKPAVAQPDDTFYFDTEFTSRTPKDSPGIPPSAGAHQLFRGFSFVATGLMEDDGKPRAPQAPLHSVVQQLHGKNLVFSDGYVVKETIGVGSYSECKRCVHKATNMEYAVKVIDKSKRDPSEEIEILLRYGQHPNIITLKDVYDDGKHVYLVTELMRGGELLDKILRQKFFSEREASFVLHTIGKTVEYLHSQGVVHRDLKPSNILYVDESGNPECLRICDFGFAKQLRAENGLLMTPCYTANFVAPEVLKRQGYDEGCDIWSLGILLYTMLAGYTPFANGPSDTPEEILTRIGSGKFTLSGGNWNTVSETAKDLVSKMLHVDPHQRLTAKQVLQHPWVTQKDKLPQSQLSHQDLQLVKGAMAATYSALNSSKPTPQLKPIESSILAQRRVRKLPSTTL
Procedure: as §1

MAPKAP-K3 = MAPKAP-K3 (Homo sapiens, UniProt Q16644)
Procedure: as §1

Structure (SMILES): CN(C)c1ccc2c(c1)Oc1cc(N(C)C)ccc1C21OC(=O)c2cc(C(=O)NCCCC[C@@H](NC(=O)[C@@H](CCCNC(=N)N)NC(=O)[C@@H](CCCNC(=N)N)NC(=O)[C@@H](CCCNC(=N)N)NC(=O)[C@@H](CCCNC(=N)N)NC(=O)[C@@H](CCCNC(=N)N)NC(=O)[C@@H](CCCNC(=N)N)NC(=O)CCCCCNC(=O)[C@@H](CCCNC(=N)N)NC(=O)CCCCCNC(=O)c3ccc(-c4ccnc(N)n4)s3)C(N)=O)ccc21 [ARC-669]
- remaining activity at 1 µM (YES1): 64%
- remaining activity at 1 µM (GSK3b): 77%
- remaining activity at 1 µM (PKA): 1%
- remaining activity at 1 µM (MSK1): 3%
- remaining activity at 1 µM (MST2): 94%
- remaining activity at 1 µM (Aurora B): 81%
- remaining activity at 1 µM (JNK1): 91%
- remaining activity at 1 µM (CLK2): 1%
- remaining activity at 1 µM (TBK1): 27%
- remaining activity at 1 µM (TAK1): 13%
- remaining activity at 1 µM (SYK): 73%
- remaining activity at 1 µM (Src): 106%
- remaining activity at 1 µM (DYRK3): 18%
- remaining activity at 1 µM (MLK1): 60%
- remaining activity at 1 µM (EPH-B3): 75%
- remaining activity at 1 µM (ZAP70): 82%
- remaining activity at 1 µM (CAMK1): 3%
- remaining activity at 1 µM (RIPK2): 47%
- remaining activity at 1 µM (p38g MAPK): 104%
- remaining activity at 1 µM (MARK3): 20%
- remaining activity at 1 µM (LKB1): 101%
- remaining activity at 1 µM (JAK2): 80%
- remaining activity at 1 µM (SRPK1): 66%
- remaining activity at 1 µM (p38d MAPK): 104%
- remaining activity at 1 µM (PKD1): 37%
- remaining activity at 1 µM (JNK2): 85%
- remaining activity at 1 µM (PLK1): 101%
- remaining activity at 1 µM (GCK): 10%
- remaining activity at 1 µM (EF2K): 43%
- remaining activity at 1 µM (S6K1): 4%
- remaining activity at 1 µM (TTK): 66%
- remaining activity at 1 µM (EPH-B1): 90%
- remaining activity at 1 µM (RSK2): 4%
- remaining activity at 1 µM (PIM1): 3%
- remaining activity at 1 µM (p38a MAPK): 55%
- remaining activity at 1 µM (ERK2): 80%
- remaining activity at 1 µM (PIM2): 15%
- remaining activity at 1 µM (NEK6): 71%
- remaining activity at 1 µM (IRAK4): 82%
- remaining activity at 1 µM (RSK1): 2%
- remaining activity at 1 µM (MAPKAP-K3): 31%
